Literature values as cited in publication PMC8044989.

Molecular target: RXFP3 (Homo sapiens) (UniProt Q9NSD7)
Sequence of UniProt Q9NSD7 (Q9NSD7 whole entry): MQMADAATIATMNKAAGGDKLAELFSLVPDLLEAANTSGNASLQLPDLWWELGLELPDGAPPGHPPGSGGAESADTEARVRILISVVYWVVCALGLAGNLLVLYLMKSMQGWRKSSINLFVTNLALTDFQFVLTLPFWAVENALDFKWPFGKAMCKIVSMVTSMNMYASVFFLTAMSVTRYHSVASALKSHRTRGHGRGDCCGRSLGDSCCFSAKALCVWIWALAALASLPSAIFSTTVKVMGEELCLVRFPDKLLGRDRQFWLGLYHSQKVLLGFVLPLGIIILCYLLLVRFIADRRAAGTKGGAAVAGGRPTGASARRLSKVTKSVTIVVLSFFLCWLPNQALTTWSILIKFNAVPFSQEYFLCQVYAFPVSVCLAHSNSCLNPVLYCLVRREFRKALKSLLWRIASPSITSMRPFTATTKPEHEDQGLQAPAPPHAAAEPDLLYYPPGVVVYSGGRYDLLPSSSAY

relaxin-3 (from UniProt Q8WXF3)
Kd: 0.3 nM
